The text below walks through data of PMC4550541 (Protein Engineering, Design and Selection, 2015).

This test addresses HER2 (extracellular domain only), soluble, recombinantly expressed, biotinylated (human) (UniProt P04626). The test can be described thus: BLI; Octet Red; biotinylated HER2 (10 μg/ml) loaded on streptavidin biosensors, DARPins in solution (eight concentrations, highest 50 nM); PBS pH 7.4, 0.01% BSA, 0.01% Tween 20; 1:1 Langmuir model, global kinetic fit.

B1: DARPin F1 (designed binder)
chain: DLGKKLLEAARAGEDDEVRVLMANGADVNAKDEYGLAPLYHATAHGHLEIVEVLLKNGADVNAVDAIGFTPLHLAAFIGHLEIAEVLLRHGADVNAQDKFGKTAFDISIDNVNEDLAEILQKL
notes: source: E. coli M15 (pQE30), purified (His trap; SEC on Superdex 75 for large scale); not shown: His6, N-terminal, kept
B1: the dissociation constant Kd (in general, the equilibrium constant for the complex coming apart) came to 390 pM; the off-rate constant (koff) (as a rule, a measure of how fast the partners let go of each other) is 0.00037 s⁻¹; the kon (commonly the second-order rate constant of association) came out at 950000 M⁻¹ s⁻¹.
